# Reference: patent US20060069055, “Delivery of polynucleotides” (published 2006)
# B1: HIF decoy 819/820 double (dsDNA)
# DNA 1: GAAATACGTGCGCTTTGTGTGTACGTGCAGGAA
# DNA 2: TTCCTGCACGTACACACAAAGCGCACGTATTTC
# B2: HIF decoy 865/866 (dsDNA)
# DNA 1: AGCAGACGTGCAGGCA
# DNA 2: TGCCTGCACGTCTGCT
# B3: HIF decoy 863/864 (dsDNA)
# DNA 1: AGCAGACGTGCAGGAT
# DNA 2: ATCCTGCACGTCTGCT
# B4: HIF decoy 873/874 (dsDNA)
# DNA 1: TCCGTACGTGCTGCGT
# DNA 2: ACGCAGCACGTACGGA
# B5: 153/154 PO/H11 (dsDNA)
# DNA 1: AGTTGAGGACTTTCCAGGC
# DNA 2: GCCTGGAAAGTCCTCAACT
# modifications: strand 153 PO; strand 154 PS at the 11 most 3' linkages
# B6: 153/154 H5/PO (dsDNA)
# DNA 1: AGTTGAGGACTTTCCAGGC
# DNA 2: GCCTGGAAAGTCCTCAACT
# modifications: PS at the 5 most 3' linkages of strand 153, strand 154 PO
# B7: 153/154 PO (dsDNA)
# DNA 1: AGTTGAGGACTTTCCAGGC
# DNA 2: GCCTGGAAAGTCCTCAACT
# B8: HIF decoy 871/872 (dsDNA)
# DNA 1: ACCGTACGTGCTGCCA
# DNA 2: TGGCAGCACGTACGGT
# B9: HIF decoy 855/856 (dsDNA)
# DNA 1: GTGTGTACGTGCAGGAAA
# DNA 2: TTTCCTGCACGTACACAC
# B10: HIF decoy 821/822 (dsDNA)
# DNA 1: CGCGAGCGTACGTGCCTCAGG
# DNA 2: CCTGAGGCACGTACGCTCGCG
# B11: HIF decoy 853/854 (dsDNA)
# DNA 1: TTGCTTACGTGCGCCCGG
# DNA 2: CCGGGCGCACGTAAGCAA
# B12: HIF decoy 801/802 (dsDNA)
# DNA 1: GCCCTACGTGCTGTCTCA
# DNA 2: TGAGACAGCACGTAGGGC
# B13: HIF decoy 879/880 (dsDNA)
# DNA 1: GGCTGCTGCAGACGTGCAGGTC
# DNA 2: GACCTGCACGTCTGCAGCAGCC
# B14: HIF decoy 891/892 (dsDNA)
# DNA 1: GGCTGCTGCATACGTGCAGGTC
# DNA 2: GACCTGCACGTATGCAGCAGCC
# B15: HIF decoy 849/850 (dsDNA)
# DNA 1: GCCTACACGTGGGTTCCC
# DNA 2: GGGAACCCACGTGTAGGC
# B16: HIF decoy 887/888 (dsDNA)
# DNA 1: GGCTGCACCGTACGTGCTGATC
# DNA 2: GATCAGCACGTACGGTGCAGCC
# B17: HIF decoy 841/842 double (dsDNA)
# DNA 1: AGCGGACGTGCAGAAGTTGCACGTCCTCT
# DNA 2: AGAGGACGTGCAACTTCTGCACGTCCGCT
# B18: HIF decoy 869/870 (dsDNA)
# DNA 1: AGCAGACGTGCAGGGT
# DNA 2: ACCCTGCACGTCTGCT
# B19: HIF decoy 859/860 (dsDNA)
# DNA 1: ACCGTACGTGCTGATC
# DNA 2: GATCAGCACGTACGGT
# B20: HIF decoy 851/852 (dsDNA)
# DNA 1: CGGAGTACGTGACGGAGC
# DNA 2: GCTCCGTCACGTACTCCG
# B21: HIF decoy 843/844 (dsDNA)
# DNA 1: GTGCATACGTGGGCTCCA
# DNA 2: TGGAGCCCACGTATGCAC
# B22: HIF decoy 805/806 (dsDNA)
# DNA 1: CCCCCTCGGACGTGACTCGGACCAC
# DNA 2: GTGGTCCGAGTCACGTCCGAGGGGG
# B23: HIF decoy 845/846 (dsDNA)
# DNA 1: GAGCGTACGTGCCTCAGG
# DNA 2: CCTGAGGCACGTACGCTC
# Target: T1, HIF-1 complex (HIF-1alpha containing) (UniProt Q16665;P27540 Q16665:1-826,P27540:2-789)
# Assay: competition; smaller is better competition; TransAM plate assay
# Conditions: protein: extract; tags: nuclear extract, TransAM HIF-1 kit Active Motif 47096
# Method: (§1) To assess the relative affinities of oligonucleotides for a HIF-1α containing complex, the HIF-1 TransAM assay (Active Motif, Catalog # 47096) was utilized. The assay was performed according to manufacturer's instructions. Briefly, a double-stranded oligonucletide containing the hypoxia response element (HRE) was immobilized on a 96-well plate. A nuclear extract containing HIF-1 alpha complexes was incubated and allowed to bind to the immobilized oligonucleotide. The unbound material was washed away and the bound HIF-1α detected using an antibody that specificially recognizes HIF-1α. The anti-HIF-1α antibody was detected by a secondary antibody labeled with horseradish peroxidase (HRP), and the amount of HRP in each well was measured using a colorimetric substrate reaction and read using a microplate spectrophotometer.
# The ability of candidate decoy molecules to compete for binding of HIF-1α to the HRE element immobilized on the plate were measured and compared to reveal relative binding affinities. […] A well containing a competing decoy able to bind HIF-1α with high affinity would give a lower absorbance reading as compared to a decoy with low affinity for HIF-1α. […]
# The screen was conducted using different decoy concentrations. For each UV absorbance reading, normalization was done by calculating the ratio of absorbance readings of sample vs. wild type control. […]
# T1 sequence (Q16665 whole entry, chain 1 of 2): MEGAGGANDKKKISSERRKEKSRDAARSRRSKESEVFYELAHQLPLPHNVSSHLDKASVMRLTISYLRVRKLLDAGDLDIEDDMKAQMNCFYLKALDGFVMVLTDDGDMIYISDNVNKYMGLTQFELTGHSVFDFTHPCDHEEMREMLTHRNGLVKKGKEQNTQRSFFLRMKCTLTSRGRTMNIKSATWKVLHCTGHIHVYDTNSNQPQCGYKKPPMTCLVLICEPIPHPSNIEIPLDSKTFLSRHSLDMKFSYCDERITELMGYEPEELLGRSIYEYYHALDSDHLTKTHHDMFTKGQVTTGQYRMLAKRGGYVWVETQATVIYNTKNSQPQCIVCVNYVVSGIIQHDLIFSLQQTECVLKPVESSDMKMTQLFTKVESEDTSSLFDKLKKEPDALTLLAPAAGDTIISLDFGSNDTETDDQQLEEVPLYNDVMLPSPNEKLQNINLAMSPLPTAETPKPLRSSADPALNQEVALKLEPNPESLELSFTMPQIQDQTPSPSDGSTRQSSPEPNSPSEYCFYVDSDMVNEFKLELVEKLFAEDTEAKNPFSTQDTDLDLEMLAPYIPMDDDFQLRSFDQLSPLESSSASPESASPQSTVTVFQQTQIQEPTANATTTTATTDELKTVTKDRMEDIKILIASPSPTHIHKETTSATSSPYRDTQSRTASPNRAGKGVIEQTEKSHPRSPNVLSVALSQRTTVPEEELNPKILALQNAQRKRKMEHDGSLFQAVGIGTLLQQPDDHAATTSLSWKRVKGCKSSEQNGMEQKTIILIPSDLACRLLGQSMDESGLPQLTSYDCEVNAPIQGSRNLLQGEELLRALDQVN
# T1 sequence (P27540 2-789, chain 2 of 2): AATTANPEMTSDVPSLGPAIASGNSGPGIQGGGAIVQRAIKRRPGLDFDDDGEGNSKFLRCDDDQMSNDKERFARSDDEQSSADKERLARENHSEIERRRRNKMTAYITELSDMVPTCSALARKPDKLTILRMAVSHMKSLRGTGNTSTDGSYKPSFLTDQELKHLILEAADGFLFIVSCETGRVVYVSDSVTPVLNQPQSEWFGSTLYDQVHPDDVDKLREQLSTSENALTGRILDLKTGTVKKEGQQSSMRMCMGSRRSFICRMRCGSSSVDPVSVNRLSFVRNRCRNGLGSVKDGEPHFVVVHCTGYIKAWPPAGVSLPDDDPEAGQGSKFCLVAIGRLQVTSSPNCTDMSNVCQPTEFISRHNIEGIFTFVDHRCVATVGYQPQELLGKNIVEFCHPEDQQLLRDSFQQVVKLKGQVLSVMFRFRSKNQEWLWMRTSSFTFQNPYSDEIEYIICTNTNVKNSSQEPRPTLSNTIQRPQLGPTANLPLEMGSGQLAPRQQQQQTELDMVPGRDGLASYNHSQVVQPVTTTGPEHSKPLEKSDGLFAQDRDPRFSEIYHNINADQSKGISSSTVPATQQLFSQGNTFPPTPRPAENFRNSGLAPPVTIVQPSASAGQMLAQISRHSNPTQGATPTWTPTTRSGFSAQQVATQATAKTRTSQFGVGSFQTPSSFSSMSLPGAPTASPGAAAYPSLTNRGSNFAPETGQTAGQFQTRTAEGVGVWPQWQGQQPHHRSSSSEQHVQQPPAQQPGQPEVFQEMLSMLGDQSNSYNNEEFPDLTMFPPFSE
row,Binder,binding signal
1,B1,0.88 ratio to wild-type control absorbance

# Target: T1, HIF-1 complex (HIF-1alpha containing)
# Assay: competition; TransAM; higher ratio = poorer competition; scramble 2.19
# Conditions: protein: extract; tags: nuclear extract, TransAM HIF-1 kit Active Motif 47096
# Method: as §1
# (§2) The ability of candidate decoy molecules to compete for binding of HIF-1α to the HRE element immobilized on the plate were measured and compared to reveal relative binding affinities. Candidate decoys were added in increasing molar ratios (relative to the amount of oligo immobilized on the plate) to compete for binding to the HIF-1α containing complexes. […] A well containing a competing decoy able to bind HIF-1α with high affinity would give a lower absorbance reading as compared to a decoy with low affinity for HIF-1α. All potential decoys were then compared and ranked in order to assess their relative binding affinities.
# (§3) The screen was conducted using different decoy concentrations. For each UV absorbance reading, normalization was done by calculating the ratio of absorbance readings of sample vs. wild type control. The bigger ratio represents less competition of binding with HIF-1α when compared with wild-type control. The smaller (smaller than 1.0 or close to 1.0) ratios represent better binding or better competition.
row,Binder,binding signal
1,B2,2.01 ratio to wild-type control
2,B3,2.02 ratio to wild-type control
3,B4,2.04 ratio to wild-type control

# Target: T2, NF-kB p50/p50 homodimer (Homo sapiens, UniProt P19838 P19838:1-433)
# Assay: EMSA
# Conditions: protein: extract; tags: nuclear extract of LPS-stimulated THP-1 cells; chain copies: 2 (stated)
# Text: (§4) The EMSA assay was employed to characterize oligonucleotide decoys for the NF-κB transcription factor. […] Using the above modified oligonucleotides to compete for binding for the above-mentioned NF-κB family members, it was possible to compare the binding affinity of these oligonucleotides against the high affinity radiolabeled probe and each other. This assay has also enabled the design of a decoy which selectively binds particular members of the NF-κB family. By using increasing concentrations of various oligonucleotides, it was observed that, by deleting or changing targeted residues in the binding site, it was possible to specifically decrease the binding of the decoy molecule to p50/p50 homodimers, while retaining the affinity for p65/p50 and cRel/p50 heterodimers.
# (§5) The NF-κB gel shift assays (EMSA) were performed as follows. A double-stranded oligonucleotide containing a consensus NF-κB binding site (5′ […].GGC 3′) (SEQ ID NO: 26) was end-labeled with γ³²P-ATP using T4 Polynucleotide Kinase (Promega). […] The dried gels were imaged and quantitated using a Typhoon 8600 Phosphorlmager (Amersham) and ImageQuant software. […]
# T2 sequence (P19838 1-433, one chain of several): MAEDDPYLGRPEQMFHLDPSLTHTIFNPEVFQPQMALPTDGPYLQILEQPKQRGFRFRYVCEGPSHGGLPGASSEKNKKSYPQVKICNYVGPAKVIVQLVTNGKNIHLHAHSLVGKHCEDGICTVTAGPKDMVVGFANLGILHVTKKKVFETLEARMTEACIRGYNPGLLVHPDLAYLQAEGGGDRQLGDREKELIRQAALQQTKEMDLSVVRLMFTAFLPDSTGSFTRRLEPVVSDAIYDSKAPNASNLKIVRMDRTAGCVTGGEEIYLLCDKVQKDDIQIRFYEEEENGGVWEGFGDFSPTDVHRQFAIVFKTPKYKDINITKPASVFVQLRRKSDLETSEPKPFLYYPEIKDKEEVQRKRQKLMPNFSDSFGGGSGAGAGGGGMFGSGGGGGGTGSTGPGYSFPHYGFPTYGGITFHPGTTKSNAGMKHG
row,Binder,IC50 [fold molar excess]
1,B5,40

# Target: T2, NF-kB p50/p50 homodimer
# Assay: EMSA; competition against labelled probe 113/114
# Conditions: protein: extract; tags: nuclear extract of LPS-stimulated THP-1 cells; chain copies: 2 (stated)
# Text: as §4, §5
row,Binder,IC50 [fold molar excess]
1,B6,83
2,B7,92

# Target: T1, HIF-1 complex (HIF-1alpha containing)
# Assay: competition
# Conditions: protein: extract; tags: nuclear extract, TransAM HIF-1 kit Active Motif 47096
# Method: as §1, §2, §3
row,Binder,binding signal
1,B8,1.87 ratio to wild-type control absorbance
2,B9,1.21 ratio to wild-type control absorbance
3,B10,1.26 ratio to wild-type control absorbance
4,B11,1.62 ratio to wild-type control absorbance
5,B12,1.83 ratio to wild-type control absorbance
6,B13,1.98 ratio to wild-type control absorbance
7,B14,1.6 ratio to wild-type control absorbance
8,B15,1.96 ratio to wild-type control absorbance
9,B16,1.94 ratio to wild-type control absorbance
10,B17,0.95 ratio to wild-type control absorbance
11,B18,1.93 ratio to wild-type control absorbance
12,B19,1.85 ratio to wild-type control absorbance
13,B20,1.08 ratio to wild-type control absorbance
14,B21,1.81 ratio to wild-type control absorbance
15,B22,1.09 ratio to wild-type control absorbance
16,B23,1.57 ratio to wild-type control absorbance
